From US20110118131A1 (published 2011)
Residue numbers refer to the chain shown, from its start. Names may count otherwise.

B1: XPA23 heavy chain M57L (Fab, V domains shown)
VH: EVQLLESGGGLVQPGGSLRLSCAASGFTFSKYFMFWVRQAPGKGLEWVSVISPSGGLTRYADSVKGRFTISRDNSKNTLYLQMNSLRAEDTAVYYCARVGYGGNSDYWGQGTLVTVSS
VL: DIQMTQSPSSVSASVGDRLTIICRASQDINRWLAWYQQTPGNAPKLLIHSATSLQSGVPSRFSGSGSGTDFTLTINSLQPEDFATYYCQQADSFPLTFGGGTKVEIK
notes: Fab, periplasmic extract; also called C5A M57L
B2: XPA23 heavy chain S105P (Fab, V domains shown)
VH: B1 VH with L57M, S105P
VL: B1 VL
notes: Fab, periplasmic extract; also called C5A S105P
B3: XPA23 heavy chain S54T (Fab, V domains shown)
VH: B1 VH with S54T, L57M
VL: B1 VL
notes: Fab, periplasmic extract; also called C5A S54T
B4: XPA23 heavy chain T58I (Fab, V domains shown)
VH: B1 VH with L57M, T58I
VL: B1 VL
notes: Fab, periplasmic extract; also called C5A T58I
B5: XPA23 heavy chain S54P (Fab, V domains shown)
VH: B1 VH with S54P, L57M
VL: B1 VL
notes: Fab, periplasmic extract; also called C5A S54P
B6: XPA23 heavy chain S105T (Fab, V domains shown)
VH: B1 VH with L57M, S105T
VL: B1 VL
notes: Fab, periplasmic extract; also called C5A S105T
B7: XPA23 heavy chain P53I (Fab, V domains shown)
VH: B1 VH with P53I, L57M
VL: B1 VL
notes: Fab, periplasmic extract; also called C5A P53I
B8: XPA23 heavy chain S105V (Fab, V domains shown)
VH: B1 VH with L57M, S105V
VL: B1 VL
notes: Fab, periplasmic extract; also called C5A S105V
B9: XPA23 heavy chain S54V (Fab, V domains shown)
VH: B1 VH with S54V, L57M
VL: B1 VL
notes: Fab, periplasmic extract; also called C5A S54V
B10: XPA23 heavy chain S105G (Fab, V domains shown)
VH: B1 VH with L57M, S105G
VL: B1 VL
notes: Fab, periplasmic extract; also called C5A S105G
B11: XPA23 heavy chain R59T (Fab, V domains shown)
VH: B1 VH with L57M, R59T
VL: B1 VL
notes: Fab, periplasmic extract; also called C5A R59T
B12: XPA23 heavy chain S52G (Fab, V domains shown)
VH: B1 VH with S52G, L57M
VL: B1 VL
notes: Fab, periplasmic extract; also called C5A S52G
B13: XPA23 heavy chain M57T (Fab, V domains shown)
VH: B1 VH with L57T
VL: B1 VL
notes: Fab, periplasmic extract; also called C5A M57T
B14: XPA23 heavy chain S30T (Fab, V domains shown)
VH: B1 VH with S30T, L57M
VL: B1 VL
notes: Fab, periplasmic extract; also called C5A S30T
B15: XPA23 heavy chain S54I (Fab, V domains shown)
VH: B1 VH with S54I, L57M
VL: B1 VL
notes: Fab, periplasmic extract; also called C5A S54I
B16: XPA23 heavy chain T58A (Fab, V domains shown)
VH: B1 VH with L57M, T58A
VL: B1 VL
notes: Fab, periplasmic extract; also called C5A T58A
B17: XPA23 heavy chain S30I (Fab, V domains shown)
VH: B1 VH with S30I, L57M
VL: B1 VL
notes: Fab, periplasmic extract; also called C5A S30I
B18: XPA23 heavy chain P53L (Fab, V domains shown)
VH: B1 VH with P53L, L57M
VL: B1 VL
notes: Fab, periplasmic extract; also called C5A P53L
B19: XPA23 heavy chain S52T (Fab, V domains shown)
VH: B1 VH with S52T, L57M
VL: B1 VL
notes: Fab, periplasmic extract; also called C5A S52T
B20: XPA23 heavy chain N104G (Fab, V domains shown)
VH: B1 VH with L57M, N104G
VL: B1 VL
notes: Fab, periplasmic extract; also called C5A N104G
B21: XPA23 heavy chain N104T (Fab, V domains shown)
VH: B1 VH with L57M, N104T
VL: B1 VL
notes: Fab, periplasmic extract; also called C5A N104T
B22: XPA23 heavy chain S30G (Fab, V domains shown)
VH: B1 VH with S30G, L57M
VL: B1 VL
notes: Fab, periplasmic extract; also called C5A S30G
B23: XPA23 heavy chain M57V (Fab, V domains shown)
VH: B1 VH with L57V
VL: B1 VL
notes: Fab, periplasmic extract; also called C5A M57V
B24: XPA23 heavy chain S54G (Fab, V domains shown)
VH: B1 VH with S54G, L57M
VL: B1 VL
notes: Fab, periplasmic extract; also called C5A S54G
B25: XPA23 heavy chain P53G (Fab, V domains shown)
VH: B1 VH with P53G, L57M
VL: B1 VL
notes: Fab, periplasmic extract; also called C5A P53G
B26: XPA23 heavy chain S52V (Fab, V domains shown)
VH: B1 VH with S52V, L57M
VL: B1 VL
notes: Fab, periplasmic extract; also called C5A S52V
B27: XPA23 heavy chain N104A (Fab, V domains shown)
VH: B1 VH with L57M, N104A
VL: B1 VL
notes: Fab, periplasmic extract; also called C5A N104A
B28: XPA23 heavy chain T58G (Fab, V domains shown)
VH: B1 VH with L57M, T58G
VL: B1 VL
notes: Fab, periplasmic extract; also called C5A T58G
B29: XPA23 heavy chain T58P (Fab, V domains shown)
VH: B1 VH with L57M, T58P
VL: B1 VL
notes: Fab, periplasmic extract; also called C5A T58P
B30: XPA23 heavy chain R59P (Fab, V domains shown)
VH: B1 VH with L57M, R59P
VL: B1 VL
notes: Fab, periplasmic extract; also called C5A R59P
B31: XPA23 heavy chain P53V (Fab, V domains shown)
VH: B1 VH with P53V, L57M
VL: B1 VL
notes: Fab, periplasmic extract; also called C5A P53V
B32: XPA23 heavy chain S52P (Fab, V domains shown)
VH: B1 VH with S52P, L57M
VL: B1 VL
notes: Fab, periplasmic extract; also called C5A S52P
B33: XPA23 heavy chain S105I (Fab, V domains shown)
VH: B1 VH with L57M, S105I
VL: B1 VL
notes: Fab, periplasmic extract; also called C5A S105I
B34: XPA23 heavy chain S30L (Fab, V domains shown)
VH: B1 VH with S30L, L57M
VL: B1 VL
notes: Fab, periplasmic extract; also called C5A S30L
B35: XPA23 heavy chain S54A (Fab, V domains shown)
VH: B1 VH with S54A, L57M
VL: B1 VL
notes: Fab, periplasmic extract; also called C5A S54A
B36: XPA23 heavy chain S30A (Fab, V domains shown)
VH: B1 VH with S30A, L57M
VL: B1 VL
notes: Fab, periplasmic extract; also called C5A S30A
B37: XPA23 heavy chain S52A (Fab, V domains shown)
VH: B1 VH with S52A, L57M
VL: B1 VL
notes: Fab, periplasmic extract; also called C5A S52A
B38: XPA23 heavy chain R59L (Fab, V domains shown)
VH: B1 VH with L57M, R59L
VL: B1 VL
notes: Fab, periplasmic extract; also called C5A R59L
B39: XPA23 heavy chain S105A (Fab, V domains shown)
VH: B1 VH with L57M, S105A
VL: B1 VL
notes: Fab, periplasmic extract; also called C5A S105A
B40: XPA23 heavy chain N104L (Fab, V domains shown)
VH: B1 VH with L57M, N104L
VL: B1 VL
notes: Fab, periplasmic extract; also called C5A N104L
B41: XPA23 heavy chain R59G (Fab, V domains shown)
VH: B1 VH with L57M, R59G
VL: B1 VL
notes: Fab, periplasmic extract; also called C5A R59G
B42: XPA23 heavy chain S54L (Fab, V domains shown)
VH: B1 VH with S54L, L57M
VL: B1 VL
notes: Fab, periplasmic extract; also called C5A S54L
B43: XPA23 heavy chain T58L (Fab, V domains shown)
VH: B1 VH with L57M, T58L
VL: B1 VL
notes: Fab, periplasmic extract; also called C5A T58L
B44: XPA23 heavy chain N104V (Fab, V domains shown)
VH: B1 VH with L57M, N104V
VL: B1 VL
notes: Fab, periplasmic extract; also called C5A N104V
B45: XPA23 heavy chain P53A (Fab, V domains shown)
VH: B1 VH with P53A, L57M
VL: B1 VL
notes: Fab, periplasmic extract; also called C5A P53A

target: T1, IL-1β (UniProt P01584 117-269); experiment: Biacore, Fab periplasmic extract
T1 construct: Antigen of XPA23

In order of falling “fold difference in affinity against the original” value:
1. B29  1.81 fold
2. B27  1.61 fold
3. B24  1.43 fold
4. B2  1.41 fold
5. B44  1.27 fold
6. B20  1.21 fold
7. B40  1.19 fold
8. B31  1.1 fold
9. B41  1.04 fold
10. B9  1 fold
11. B35  1 fold
12. B4  0.95 fold
13. B21  0.95 fold
14. B28  0.95 fold
15. B43  0.95 fold
16. B34  0.91 fold
17. B42  0.91 fold
18. B15  0.86 fold
19. B39  0.84 fold
20. B36  0.77 fold
21. B11  0.76 fold
22. B3  0.14 fold
23. B16  0.14 fold
24. B22  0.13 fold
25. B10  0.12 fold
26. B6  0.11 fold
27. B7  0.08 fold
28. B8  0.08 fold
29. B17  0.08 fold
30. B38  0.08 fold
31. B30  0.07 fold
32. B33  0.07 fold
33. B1  0.06 fold
34. B5  0.06 fold
35. B13  0.06 fold
36. B14  0.06 fold
37. B32  0.05 fold
38. B37  0.05 fold
39. B45  0.05 fold
40. B18  0.04 fold
41. B19  0.04 fold
42. B26  0.04 fold
43. B12  0.03 fold
44. B23  0.03 fold
45. B25  0.02 fold
